Consider six molecules from publication PMC3532599, “Structural and Functional Integration of the PLCγ Interaction Domains Critical for Regulatory Mechanisms and Signaling Deregulation” (Structure(London, England:1993), 2012).

Where a chain is given by its changes, count along the chain named. Names and notes keep the numbering of the source.

The target in experiment [1] is PLCγ1 PLC-core (residues 13−1215, Δ488–933, H335A) (human) (UniProt P19174). Description: ITC; cSH2 domain in the syringe, PLC-core in the cell.
Another experiment addresses FGFR1 kinase domain (UniProt P11362). The experiment in a line: ITC, two-site fit. As to conditions: reference: nonphosphorylated wild-type nSH2-cSH2; sites Y783. In general terms: In ITC the heat of successive injections is recorded.
For experiment [2], the target named is T1, PLCγ1 tandem nSH2-cSH2 domains, wild type (human, UniProt P19174 545-790).
T1 construct: PLCγ1 (phospholipase C gamma 1), tandem nSH2 and cSH2 domains with part of the cSH2-SH3 linker; residue numbering is for human PLCγ1; also called nSH2-cSH2^wt; nSH2cSH2^WT
T1 sequence: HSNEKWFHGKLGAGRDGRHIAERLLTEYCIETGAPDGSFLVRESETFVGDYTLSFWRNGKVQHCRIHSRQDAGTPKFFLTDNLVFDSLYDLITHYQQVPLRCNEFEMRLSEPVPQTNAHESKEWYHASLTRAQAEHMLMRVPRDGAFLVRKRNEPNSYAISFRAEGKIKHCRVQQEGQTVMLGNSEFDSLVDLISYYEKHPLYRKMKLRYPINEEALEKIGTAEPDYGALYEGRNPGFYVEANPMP
Description: ITC; FGFR1-1p in the syringe, PLCγ1 construct in the cell; corrected for heat of dilution; fit to a two-site model (nSH2-cSH2 constructs) or a one-site model (γSA). The settings on record: both partners purified.

The target in experiment [3] is T2, PLCγ1 nSH2-cSH2 Y771F,Y775F (545–790) phosphorylated on Y783 (human, UniProt P19174 545-790, Y771F | Y775F, phosphotyrosine at 783).
T2 construct: PLCγ1, tandem nSH2-cSH2 with the cSH2-SH3 linker, residues 545-790; residue numbering is for human PLCγ1; also called nSH2-cSH2^Y771F,Y775F,pY783; nSH2cSH2^pY783
T2 sequence (looked up): T1 sequence with Y227F, Y231F
Described as above. As to conditions: both partners purified.

Experiment [4] concerns the target PLCγ1 specific array of domains (γSA), wild type (human). The experiment is described as above.
Experiment [5] addresses T3, PLCγ1 cSH2 domain, wild type (human).
T3 sequence (P19174 whole entry, looked up): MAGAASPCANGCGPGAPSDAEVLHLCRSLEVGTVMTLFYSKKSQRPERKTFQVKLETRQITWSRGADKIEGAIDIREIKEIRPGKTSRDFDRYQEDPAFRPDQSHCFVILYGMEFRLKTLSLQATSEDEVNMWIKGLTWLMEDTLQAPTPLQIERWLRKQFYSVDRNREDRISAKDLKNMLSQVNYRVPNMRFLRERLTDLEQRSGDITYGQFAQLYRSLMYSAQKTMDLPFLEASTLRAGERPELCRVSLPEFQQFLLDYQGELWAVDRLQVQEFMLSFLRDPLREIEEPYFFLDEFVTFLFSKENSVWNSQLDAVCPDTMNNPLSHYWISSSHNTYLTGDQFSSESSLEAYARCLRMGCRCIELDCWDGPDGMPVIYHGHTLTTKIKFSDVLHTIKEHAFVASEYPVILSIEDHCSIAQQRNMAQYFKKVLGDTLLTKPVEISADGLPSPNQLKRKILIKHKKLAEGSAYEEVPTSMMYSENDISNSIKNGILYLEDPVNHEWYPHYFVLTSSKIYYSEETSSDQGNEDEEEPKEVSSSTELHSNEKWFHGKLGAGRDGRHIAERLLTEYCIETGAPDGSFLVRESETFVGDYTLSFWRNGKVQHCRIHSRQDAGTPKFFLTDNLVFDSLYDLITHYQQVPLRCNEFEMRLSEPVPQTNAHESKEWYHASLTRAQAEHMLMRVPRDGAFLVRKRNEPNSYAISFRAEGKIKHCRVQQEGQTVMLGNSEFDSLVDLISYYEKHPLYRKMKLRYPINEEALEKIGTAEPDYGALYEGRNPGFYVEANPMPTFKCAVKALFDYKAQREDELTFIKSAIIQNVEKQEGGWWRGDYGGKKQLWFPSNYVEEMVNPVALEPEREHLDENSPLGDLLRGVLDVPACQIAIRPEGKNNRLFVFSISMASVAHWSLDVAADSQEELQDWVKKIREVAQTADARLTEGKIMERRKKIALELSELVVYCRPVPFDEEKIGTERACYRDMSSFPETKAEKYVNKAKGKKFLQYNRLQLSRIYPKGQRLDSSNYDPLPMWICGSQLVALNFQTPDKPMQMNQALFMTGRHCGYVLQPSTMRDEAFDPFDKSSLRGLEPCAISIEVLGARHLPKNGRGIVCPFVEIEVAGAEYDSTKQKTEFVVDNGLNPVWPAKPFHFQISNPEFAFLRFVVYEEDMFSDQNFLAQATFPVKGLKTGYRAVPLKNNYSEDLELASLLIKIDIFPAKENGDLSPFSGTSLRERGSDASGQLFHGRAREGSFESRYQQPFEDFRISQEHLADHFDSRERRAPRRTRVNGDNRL
The experiment in a line: NMR titration; 15N-labelled spPH, nSH2 or cSH2 domain observed by 1H-15N HSQC, unlabelled PLC-core (H335A) added up to 1:1; 25°C; for cSH2 then the phosphopeptide NPGFpYVEANPMP to 1:1:1.

One may read the Kd as a measure of binding affinity in units of concentration. A high value points to lower affinity. For orientation: stoichiometry N means a count of units in the complex or per binding partner. On to “PLCγ1 cSH2 domain N728D (domain or fragment)”, for which, in experiment [1], the Kd was found to be 49.5 µM, the dH was -5.99 kJ/mol and the stoichiometry N is 1.17.

“PLCγ1 cSH2 domain S729Y (domain or fragment)”: in experiment [1], the Kd was determined as 61.3 µM, the dH is -6.06 kJ/mol and the stoichiometry N was 1.

Take “PLCγ1 cSH2 domain, wild type (domain or fragment)”: in experiment [1], the Kd is 23.9 µM, the dH came out at 2.46 kJ/mol and the stoichiometry N is 1.14.

With “PLCγ1 nSH2-cSH2 tandem, 545-790 (from UniProt P19174) nSH2-cSH2 Y771F,Y775F phosphorylated at Y783”, in the experiment with FGFR1 kinase domain, the KD result is “weaker; reference 0.005 ± 0.001”.

B1: FGFR1-1p kinase domain (pY766) (domain or fragment, UniProt P11362 458-774, looked up)
chain: AGVSEYELPEDPRWELPRDRLVLGKPLGEGCFGQVVLAEAIGLDKDKPNRVTKVAVKMLKSDATEKDLSDLISEMEMMKMIGKHKNIINLLGACTQDGPLYVIVEYASKGNLREYLQARRPPGLEYCYNPSHNPEEQLSSKDLVSCAYQVARGMEYLASKKCIHRDLAARNVLVTEDNVMKIADFGLARDIHHIDYYKKTTNGRLPVKWMAPEALFDRIYTHQSDVWSFGVLLWEIFTLGGSPYPGVPVEELFKLLKEGHRMDKPSNCTNELYMMMRDCWHAVPSQRPTFKQLVEDLDRIVALTSNQEYLDLSMPLD
modifications: phosphotyrosine at 766
notes: fibroblast growth factor receptor 1 (FGFR1), kinase domain with the C-terminal tail holding pY766; see the Supplemental Experimental Procedures
With B1, in experiment [2], the “dH, first binding event” value was -27.2 ± 0.766 kJ/mol and the “dH, second binding event” value was 29.8 ± 0.962 kJ/mol. Moreover, in experiment [3], the “dH, first binding event” value was -34.76 ± 0.105 kJ/mol and the “dH, second binding event” value was determined as 158 ± 21.5 kJ/mol. Besides, in experiment [4], the Kd turned out to be 0.185 µM, the dH was -29.7 kJ/mol and the stoichiometry N stood at 1.03.

B2: PLCγ1 PLC-core (residues 13−1215, Δ488–933, H335A) (domain or fragment)
chain: GPGAPSDAEVLHLCRSLEVGTVMTLFYSKKSQRPERKTFQVKLETRQITWSRGADKIEGAIDIREIKEIRPGKTSRDFDRYQEDPAFRPDQSHCFVILYGMEFRLKTLSLQATSEDEVNMWIKGLTWLMEDTLQAPTPLQIERWLRKQFYSVDRNREDRISAKDLKNMLSQVNYRVPNMRFLRERLTDLEQRSGDITYGQFAQLYRSLMYSAQKTMDLPFLEASTLRAGERPELCRVSLPEFQQFLLDYQGELWAVDRLQVQEFMLSFLRDPLREIEEPYFFLDEFVTFLFSKENSVWNSQLDAVCPDTMNNPLSHYWISSSANTYLTGDQFSSESSLEAYARCLRMGCRCIELDCWDGPDGMPVIYHGHTLTTKIKFSDVLHTIKEHAFVASEYPVILSIEDHCSIAQQRNMAQYFKKVLGDTLLTKPVEISADGLPSPNQLKRKILIKHKKLAEGSAYEEVPTSMMYSENDISDARLTEGKIMERRKKIALELSELVVYCRPVPFDEEKIGTERACYRDMSSFPETKAEKYVNKAKGKKFLQYNRLQLSRIYPKGQRLDSSNYDPLPMWICGSQLVALNFQTPDKPMQMNQALFMTGRHCGYVLQPSTMRDEAFDPFDKSSLRGLEPCAISIEVLGARHLPKNGRGIVCPFVEIEVAGAEYDSTKQKTEFVVDNGLNPVWPAKPFHFQISNPEFAFLRFVVYEEDMFSDQNFLAQATFPVKGLKTGYRAVPLKNNYSEDLELASLLIKIDIFPAK
Take B2: the Kd in experiment [5] was 25 µM.
